Variants at the floor of the assay were thinned out.
B1: TPR 5TU (parent)
chain: GGAUCUUCUCGAUCUAACAAAAAAGACAAAUCUGCCACAAAGCUUGAGAGCAUCUUCGGAUGCAGAGGCGGCAGCCUUCGGUGGCGCGAUAGCGCCAACGUUCUCAACUAUGACACGCAAAACGCGUGCUCCGUUGAAUGGAGUUUAUCAUG

Variants of: B1
Experiment: polymerase ribozyme fitness, log enrichment relative to wild type (log ratio); higher = more active; in vitro selection for triplet polymerase activity
Method in brief: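 PCR was used to build mutant libraries for each subunit of a heterodimeric triplet polymerase ribozyme, which were then transcribed. A single in vitro selection round, in triplicate, used a frozen incubation at −7 °C and recovered extended constructs by gel excision, streptavidin beads and RT-PCR. Fitness is the logarithm of genotype enrichment relative to wild-type enrichment, averaged over replicates with inverse-variance weights. The logarithm is base 2, and after Illumina sequencing only genotypes with ≥10 input reads and ≥1 read per output were kept.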

Variant	polymerase ribozyme fitness (log ratio)
GGAUCUUCUCGAUCUAACAAAAGAGACAAAUCUGCCACAAAGCUUGAUAGCAUCUUCGGAUGCACAGGCGGUAGCCUUCGCUUGCGCGAUAGCGCCAACGUUCUCAACUAUGACACGCAAAACGCGUGCUCCGUUGAAUGGAGUUUAUCAUG	≤ -4.2
GGAUCUUCUCGAUCUAACAAAAGAGACAAAUCUGCCACAAAGCUUGAGAGCAUCUUCGGAUGCAGAGGCGGCAGCCUUCGGUGGUGCGAUAGCGUCAACGUUCUCAACUAUGACACGCAAAACGCGUGCUCCUUUGAAUGGAGUUUAUCAUG	-4
GGAUCUUCUCGAUCUAACAAAAGAGACAAAUCUGCCACAACGCUUGAGAGCAUCUUCGGAUGCAGAGGCGGCAGCCUUCGGUGGCGCGAGAGCGCCAACGUUCUCAACUGUGACACGCAAAACGCGUGCUCCGUUGAAUGGAGUUUAUCAUG	≤ -4.2
GGAUCUUCUCGAUCUAACAAAAGAGACAAAUCUGCCACAAAGCUUGAGAGCAUCUUCGGAUGCAGAGGCGGCAGCCUUCGGUGGAGCGAUAGCGCCACCGUUCUCAACUAUGACACGCAAAACGCGUGCUCCGUUGAAUGGAGUUUAUCAUG	-3.17
GGAUCUUCUCGAUCUAACAAAAGAGAUACAUAUGCGACAAAGCUUGAGAGCAUCUUCGGAUGCAGAGGCGGCAGCCUUCGGUGGUGCGAUAGCGACAACGUUCUCAACUAUGACACGCAAAACGCGGGCUCCGUUGAAUGGAGUUUAUCAUG	-4.14
GGAUCUUCUCGAUCUAACAAAAGAGACAAAUCUGCCACAAAGCUUGAGAGCGUCUUUGGAUGCAGAGGCGGCAGCCUUCGGUGGCGCGAUAGCGAGAACGUGCUCAGCUAUGACACGCAAAACGCGUGCUCCGUUGAAUGAAGUUUAUCAUG	≤ -4.2
GGAUCUUCUCGAUCUAACAAAAGAGACAAAUCUGCCACAAAGCUUGAGUGUAACUUCGGGAGCAGAGGCGUCGGCCUUCGGUGGAGAGAUAGCGCCAACGUUCUGAACUAUGACACGCAAAACGCGUGCUCCGUUGAAUGGAGUUUAUCAUG	≤ -4.2
GGAUCUUCUCGAUCUAACAAAAGAGACAAAUCUGCCACAAAGCUUAAGAGCAUCUACGGAUGCAGAGGCGGCAGCCUUCGGUGGCGAGAUAGCGCCAACGUUCUCAACUAUGACACGCAAAACGCGUGCUCCGUUGAAUGCAGUUUAUCAUG	≤ -4.2
GGAUCUUCUCGAUCUAACAAAAGAGACAAAUCUGCAACAAAGCUUGAGAGCAUCUUCGGAUGCAGAGGCGGCAGCCUUCGGUGGCGCGAUAGCGCCAACGUUCUAAGCUAUGACACGCAAAACGCGUGCUCCGUUGAAUGGAGUAUAUCAUG	≤ -4.2
GGAUCUUCUCGAUCUAACAAAAGAGACAAAUCUGACACAAAGCUUGAGAGCAUCUUCGGAUGCAGAGGCGGCAGCCUUCGGUGGCGCGAUAGCGCCAACGUUCUCAACUAUGACACGCAAAACGCGUGCUCCGUUGAAUGGGGUUUAUCAUG	-3.78
GGAUCUUCUCGAUCUAACAAAAGACACAAAUCUGCCACACAGCUUGAGAGCAUCUUCAGAAGCAGAGGCGGCAGCCUUCCGUGGCGCCAUAGCGCCAACGUUCUCAACUAUGACACGCAAAACGCGUGCUCCGUUGAAUGGAGUUUAUCAUG	≤ -4.2
GGAUCUUCUCGAUCUAACAAAAGAGACAAAUCUGCCACAAAGCUUGAGAGCAUCUUCGGAUGCAGAGGCGGCAGCCUUCGGUGGCGCGAUAGCGCCAACGUUCUCAACUAUGAUACGCAAAACGCGUGCUCCGUUGAAUGGAGUUUAUCAUG	-3.53
GGAUCUUCUCGAUCUAACAAAAGAGACAAAUCUGCCACAAAGCUUCAGAACAUCUUCGGAUGCAGAGGCGGCAGCCUUCGGUGGCGCGAUAACGCCAACGUUCUCAACUAUGACACGUAAAACGCGUGCUCCGUUGAAUGGUGUUUAUCAUG	≤ -4.2
GGAUCUUCUCGAUCUAACAAAAGAGACAAAUCUGCCACAAAGCUUGAGAGCAUCUUCGGAUGCAGAGGCGGCAGCCUUCGGUGGCGCGAUAGUGCCAACGUUCUCAACUAUGACACGCAAAACGCGUGCUCCGUUGAAUGGAGUUUAUCAUG	-3.77
GGAUCUUCUCGAUCUAACAAAAGAGACAAAUCUGCCAGAAAGCUUGAGAGCAUCUUCGGAUGCAGAGGCGGCAGCCUUCGGUGGCGCGAUAGCGUCAACGUUCUCAACUAUGAGACGCAAAACGCGUGCUCCGUUGAAUGGAGUUUAUCAUG	-3.85
GGAUCUUCUCGAUCUAACAAAAGACACAAAUCUGCCACAAAGCUUGAGACCAUCUUAUGAUGCAGAGGCGGCAGCCUUCGGUGGUGCGAUAGCGCCAACGUUCUCAACUAUGACACGCAAAACGCGUGCUCCGUUGAAUGGAGCUUAUCAUG	≤ -4.2
GGAUCUUCUCGAUCUAACAAAAGAGACAAAUCUGCCACAAAGCUUGAGAGCAUCUUCGGAUGCAGAGGCGGCAGCCUUCGGUGGCGCGAUUGCGCCAACGUUCUCAACUAUGACACGCAAAACGCGUGCUCCGUUGAAUCGAGUUUAUCAUG	≤ -4.2
GGAUCUUCUCGAUCUAACAAAAGAGACAAAUCUGCCACAGACCUUGAGAGCAUCUUCGGAUGCAGAGGCGGCAGCCUUCGGUGGCGCGAUAGCGCCAACGUUCUCAACUAUGACACGCAAAACGCGUGCUCCGUUGAAUGGAGUUUAUCAUG	≤ -4.2
GGAUCUUCUCGAUCUAACAAAAGAGACAAAUCUGCCACAAAGCUUGAGAGCAUCUUCGGAUGCAGAGGCGGUAGCCUUCGGUGGCGCGAUAGCGCCAACGUUCUCAACUAUGACACGCAAAACGCGUGCUCCGUUGAAUGGAGUUUAUCAUG	-3.74

Variant	polymerase ribozyme fitness (log ratio)
GGAUCUUCUCGAUCUAACAAAAGAGACAAAUCUGCCACAAAGCUUGAGAGCAUCUUCGGAUGCAGAGGCGGCAGCAUUCGGUGGCGCGAUAGCGCCAACGUUCUCAACUAUGACACGCAAAACGCGUGCUCCGUUGAAUGGAGUUUAUCAUG	-2.49
GGAUCUUCUCGAUCUAACAAAAGAGACAAAUCUGCCACAAAGCUUGAGAGCAUAGUCACAUGCAGAGGCGGCAGCCUUCGGUGGCGCGAUAGCGCCAACGUUCUCAACUAUGACACGCAAAACGCGUGCUCCGUUGAAUGGAGUUUAUCAUG	-4.08
GGAUCUUCUCGAUCUAACAAAAGAGACAAAUGUGCCACAAAGCUUGAGAGCAUCUUCGGAUGCAGAGGCAGCAGCCUUCGGUGGGGCGAUAGCGCCAACGUUCUCAACUAUGACACGCAAAACGCGUGCUCCGUUGAAUGGAGUUUAUCAUG	≤ -4.2
GGAUCUUCUCGAUCUAACAAAAGAGACAAAUCUGCCACAAAGCUUGAGAGCAUCUUCGGAUGCAGAGGCGGCAGCCUUCGGUGGCGUGAUAGCGCCAACGUUCUCAACUAUGACACGCAAAACGCGUGCUCCGUUGAAUGGAGUUUAUCAUG	-3.14
GGAUCUUCUCGAUCUAACAAAAGAGACAAAUCUGCCACAAAGCUUGAGAGCAUCUUCGGAUGCAGAGGCGGCAGCCUUCGGUGGCGCGAUAGUGCCAACGAUCUCAACUAUGACACGCAAAACGCGUGCUCCGUUGAAUUGAGUUUAUCAUG	-3.86
GGAUCUUCUCGAUCUAACAAAAGAGACAAAUCUGCCAUAAAGCUUGAGAGCAUCUUCGGAAGCAGAGGCGGCAGCCUUCGGUGGCGCGAUAGCGCCAACGUUCUCAACUAUGACACGCAAAACGCGUGCUCCGUUGAAUGGAGUUUAUCAUG	≤ -4.2
GGAUCUUCUCGAUCUAACAAAAGAGACAAAUCUGCCACAGAGCUUGAGAUCAUCUUCGGAUGCAGAGGCGGCAGCAUUCGGUGCCGCGAUAGCGCCAACGUUCUCAACUAUGACACGCAAAACGCGUGCUCCGUUGAAUGGAGUUUAUCAUG	≤ -4.2
GGAUCUUCUCGAUCUAACAAAAGAGACAAAUCUGCCACAAUGCUUGAGAGCAUCUUCGGAUGCAGAGGCGGCAGCGUUCAGUGGCGCGUUAGCGCCAACGUUCUCAACUAUGACACGCAAAACUCGUGCUCCGUUGAAUGGAGUUUAUCAUG	≤ -4.2
GGAUCUUCUCGAUCUAACAAAAGAGAUAAAUCUGCCACAAAGCUUGAGAGCAUCUUCGGAUGCAGAGGCGGCAGCCUUCGGUGGCGCGAUAGCGCCAACGUUCUCAACUAUGACACGCAAAACGAGUGCUCCGUUGAAUGGAUUUUAUCAUG	≤ -4.2
GGAUCUUCUCGAUCUAACAAAAGAGACAAAUCUGCCACAAAGCUUGAGAGCCUCUUCGGAUGCAGAGGCGGCAGCCUUCGGUGGCGCGAUAGCGCCAUCGUUCUCAACUAUGACACGCAAAACGCGUGCUCCGUUGAAUGGAGUUUAUCAUG	-3.98
GGAUCUUCUCGAUCUAACAAAAGAGACAAAUCUGCCACAAAGCUUGAGAGCAUCUUUGGAUGCAGAGGCGGCAGCCUUCGGUGGCGCGAUAGCGCCAACGUUCUCAACUAUGACACGCAAAACGCGUGCUCCGUUGAAUGGAGUUUAUCAUG	-2.27
GGAUCUUCUCGAUCUAACAAAAGAGACAAAUCUGCCACAAAGCUUGAGAGUAUCUUCGGAUGCACAGGCGGCAGCCUUCGGUGGCGCCAUAGCGCCAACGUUCUCAACUAAGACACGCAAAACGCGUGCUGCGUUGAAUGGAGUUUAUGAUG	≤ -4.2
GGAUCUUCUCGAUCUAACAAAAGAGAGAAAUCUGCCACAUAGCUUGAGAGCAUCUUCGGAUGCAGAGGCGGCAGUCUUCGCUGGCGCGAUAGCCCCAACGAUCUCAACAAUGACACGCAAAACGCGUGCUCCGUUGAAUGGAGUUUAUCAUG	≤ -4.2
GGAUCUUCUCGAUCUAACAAAAGAGACAAAUCUGCUACAAAGCUUGAGAUCAUCUUCGGAUGCAGAGGCGGCAGCCUUCGGUGGCGCGAUAGCGCCAACAUUCUCAGCUAUGACACGGAAAACGCGUGCUCCGUUGAAUGGAGUUUAUCAUG	≤ -4.2
GGAUCUUCUCGAUCUAACAAAAGAGACAAAUCUGCCACAAAGCUUGAGAGCAUCUUCGGAUGCAGAGGCGGCAGCCUUGGGUGGCGCGAUAGCGCCAACGUUCUCAACUAUGACACGCAAAACGCGUGCUCCGUUGAAUGGAGUUUAUCAUG	≤ -4.2
GGAUCUUCUCGAUCUAACAAAAGAGACAAAUCUGCCACAAAGCUUGAGAGCAUUUUCGGAUGCAGAGGCGGCAGCCUUCGGUGGCGCGAUAGUGCCAACGUUCUCAACUAUGACACGCAAAACGCGUCCUCCGUUGAAUGGAGUUUAUCAUG	≤ -4.2
GGAUCUUCUCGAUCUAACAAAAGAGACAAAUCUGCCACAAAGCUUGAGACCAUCUUCGGAUGCAGAGGCGGCAGCCUUCGGUGUGGCGAUAGCGCCAACGUUCUCAACUAUGACACGCAAAACGCGUGCUCCGUUGAAUGGAGUUUAUCCUG	-3.98
GGAUCUUCUCGAUCUAACAAAAGAGACAAAUCUGCCACAUAGCUUGAGAGCAUCUUCGGAUGCAGCGGCGGCAGCCUUCGGUGGCGCGAUAGCGCCAACGUUCUCAACGAGGACACGCAAAACGCGUGCUCCGUUGAAUGGAGUUUAUUAUG	≤ -4.2
GGAUCUUCUCGAUCUAACAAAAGAGACAAAUCUGCCACAAAGCUUGAGAGCAUCUUCGGAUGCGGAGGCGGCAGCCUUCGAUGGCGCGAUAGCGCCAACGUUCUCAAAUAUGACACGCAAAACUCGUGCUCCGUUGAAUGGAUUUUAUCAUG	≤ -4.2

— the RNAGym collection of RNA variant scans (doi:10.1073/pnas.2313332121)
